Measured values taken from paper PMC1888804 (Nucleic Acids Research, 2007).
Substitutions are numbered along the chain they refer to. Names may count otherwise. Read-outs that look alike come from different tables or passages of the source.

B1: τC16Δ11 (τC16 with a C-terminal deletion of 11 residues) (domain or fragment, E. coli)
chain: MKALEHEKTPELAAKLAAEAIERDPWAAQVSQLSLPKLVEQVALNAWKEESDNAVCLHLRSSQRHLNNRGAQQKLAEALSMLKGSTVELTIVEDDNPAVRTPLEWRQAIYEEKLAQARESIIADNNIQTLRRFFD
B2: τC14 (folded core of Domain V of τ, residues 499–625) (domain or fragment, E. coli)
chain: MKALEHEKTPELAAKLAAEAIERDPWAAQVSQLSLPKLVEQVALNAWKEESDNAVCLHLRSSQRHLNNRGAQQKLAEALSMLKGSTVELTIVEDDNPAVRTPLEWRQAIYEEKLAQARESIIADNNIQ
B3: τC16 (Domain V of the τ subunit of E. coli DNA polymerase III holoenzyme, residues 499–643) (domain or fragment)
chain: MKALEHEKTPELAAKLAAEAIERDPWAAQVSQLSLPKLVEQVALNAWKEESDNAVCLHLRSSQRHLNNRGAQQKLAEALSMLKGSTVELTIVEDDNPAVRTPLEWRQAIYEEKLAQARESIIADNNIQTLRRFFDAELDEESIRPI
B4: τC16[D636G] (domain or fragment, E. coli)
chain: B3 chain with D139G
B5: τC16[F631I] (domain or fragment, E. coli)
chain: B3 chain with F134I
B6: τC16[I618T] (domain or fragment, E. coli)
chain: B3 chain with I121T
B7: τC16[L627P] (domain or fragment, E. coli)
chain: B3 chain with L130P
B8: τC16[L635P] (domain or fragment, E. coli)
chain: B3 chain with L138P
B9: τC16[S617P] (domain or fragment, E. coli)
chain: B3 chain with S120P
B10: bio-τC16 (N-terminally biotinylated τC16) (domain or fragment, E. coli)
chain: B3 chain
modifications: biotinylated on the N-terminal biotin-tag
B11: bio-τC14 (biotinylated τC14) (domain or fragment, E. coli)
chain: B2 chain
modifications: biotinylated on the N-terminal biotin-tag

What was measured:
Assay in all cases: SPR
[1] = biological target: α subunit of Escherichia coli DNA polymerase III holoenzyme (E. coli) (UniProt P10443)
[2] = biological target: T1, α subunit of Escherichia coli DNA polymerase III holoenzyme (E. coli, UniProt P10443 1-1160)
[3] = biological target: T1, α subunit of Escherichia coli DNA …; remark: listed apart in the source
[4] = biological target: T1, α subunit of Escherichia coli DNA …; remark: listed apart in the source

Molecule | Kd [2] [nM] | other results
τC16Δ7 (τC16 with a C-terminal deletion of seven residues) (from UniProt P06710 499-636) (domain or fragment) | – | Kd [1]: 6.7 µM
B1 | > 10000 | –
B2 | > 10000 | –
B3 | 0.13 | –
B4 | 3.8 | –
B5 | 99 | –
B6 | 0.98 | –
B7 | 1500 | –
B8 | 2.4 | –
B9 | 160 | –
B10 | – | Kd [3]: 0.265 nM; koff [3]: 0.000402 s⁻¹; kon [3]: 1.52e+06 M⁻¹ s⁻¹; Kd [4]: 0.264 nM
B11 | – | Kd [3]: > 1000 nM
AQARESIIADNNIQTLRRFFDAELDEESIRPI (peptide, UniProt P06710 612-643, looked up) [τCpep32 (synthetic 32-mer peptide of the C-terminus of τ)] | 3800 | –
